Measurements reported in the Immune Epitope Database (IEDB).
pKd: −log10 of the molar value.

Assays:
Test in all cases: IEDB peptide-MHC binding, purified MHC/direct/fluorescence; filed as Kd, often an IC50 or EC50 that approximates it; ≥ and ≤ were set here for values at or beyond the usual limits of such assays
HLA-A*01:01 = target: HLA-A*01:01
HLA-A*02:01 = target: HLA-A*02:01
HLA-A*03:01 = target: HLA-A*03:01
HLA-A*11:01 = target: HLA-A*11:01
HLA-A*26:01 = target: HLA-A*26:01
HLA-A*31:01 = target: HLA-A*31:01
HLA-A*69:01 = target: HLA-A*69:01
HLA-B*07:02 = target: HLA-B*07:02
HLA-B*08:01 = target: HLA-B*08:01
HLA-B*15:01 = target: HLA-B*15:01
HLA-B*27:05 = target: HLA-B*27:05
HLA-B*35:01 = target: HLA-B*35:01
HLA-B*40:01 = target: HLA-B*40:01
HLA-B*44:02 = target: HLA-B*44:02
HLA-B*58:01 = target: HLA-B*58:01
HLA-A*02:03 = details: source organism: Vibrio cholerae O139
HLA-A*02:11 = details: source organism: Vibrio cholerae O139
HLA-A*02:12 = target: HLA-A*02:12
HLA-A*02:16 = details: source organism: Vibrio cholerae O139
HLA-A*02:19 = target: HLA-A*02:19
HLA-A*23:01 = details: source organism: Vibrio cholerae O139
HLA-A*24:03 = target: HLA-A*24:03
HLA-A*29:02 = details: source organism: Vibrio cholerae O139
HLA-A*68:02 = target: HLA-A*68:02
HLA-B*15:17 = details: source organism: Vibrio cholerae O139
HLA-B*18:01 = target: HLA-B*18:01
HLA-B*27:03 = target: HLA-B*27:03
HLA-B*46:01 = target: HLA-B*46:01
HLA-B*51:01 = target: HLA-B*51:01
HLA-B*57:01 = target: HLA-B*57:01
HLA-C*03:03 = details: source organism: Mycobacterium tuberculosis variant bovis BCG str. Pasteur 1173P2
HLA-B*39:01 = details: source organism: Cryptosporidium parvum Iowa II
[1] = source organism: Yersinia pestis
[2] = source organism: Vibrio cholerae O139
[3] = source organism: Escherichia coli O157:H7
[4] = source organism: Salmonella enterica subsp. enterica serovar Typhimurium
[5] = source organism: Cryptosporidium parvum Iowa II

TMPELAWAV
pKd (HLA-A*01:01; [1]): ≤ 4.70
pKd (HLA-A*02:01; [1]): 7.80
pKd (HLA-A*03:01; [1]): ≤ 4.70
pKd (HLA-A*11:01; [1]): ≤ 4.70
pKd (HLA-A*26:01; [1]): ≤ 4.70
pKd (HLA-A*31:01; [1]): ≤ 4.70
pKd (HLA-A*69:01; [1]): 8.11
pKd (HLA-B*07:02; [1]): ≤ 4.70
pKd (HLA-B*08:01; [1]): 4.82
pKd (HLA-B*15:01; [1]): ≤ 4.70
pKd (HLA-B*27:05; [1]): ≤ 4.70
pKd (HLA-B*35:01; [1]): 6.38
pKd (HLA-B*40:01; [1]): ≤ 4.70
pKd (HLA-B*44:02; [1]): ≤ 4.70
pKd (HLA-B*58:01; [1]): ≤ 4.70

EKDSNHNVL
pKd (HLA-A*02:01; [2]): ≤ 4.70
pKd (HLA-A*02:03): ≤ 4.70
pKd (HLA-A*02:11): ≤ 4.70
pKd (HLA-A*02:12; [2]): ≤ 4.70
pKd (HLA-A*02:16): ≤ 4.70
pKd (HLA-A*02:19; [2]): ≤ 4.70
pKd (HLA-A*03:01; [2]): ≤ 4.70
pKd (HLA-A*23:01): ≤ 4.70
pKd (HLA-A*24:03; [2]): ≤ 4.70
pKd (HLA-A*26:01; [2]): ≤ 4.70
pKd (HLA-A*29:02): ≤ 4.70
pKd (HLA-A*68:02; [2]): ≤ 4.70
pKd (HLA-A*69:01; [2]): ≤ 4.70
pKd (HLA-B*15:01; [2]): ≤ 4.70
pKd (HLA-B*15:17): ≤ 4.70
pKd (HLA-B*18:01; [2]): ≤ 4.70
pKd (HLA-B*27:03; [2]): ≤ 4.70
pKd (HLA-B*46:01; [2]): ≤ 4.70
pKd (HLA-B*51:01; [2]): ≤ 4.70
pKd (HLA-B*57:01; [2]): ≤ 4.70

VVPLYDTPL
pKd (HLA-A*01:01; [3]): ≤ 4.70
pKd (HLA-A*02:01; [3]): ≤ 4.70
pKd (HLA-A*03:01; [3]): ≤ 4.70
pKd (HLA-A*11:01; [3]): ≤ 4.70
pKd (HLA-A*24:03; [3]): ≤ 4.70
pKd (HLA-A*26:01; [3]): ≤ 4.70
pKd (HLA-A*31:01; [3]): ≤ 4.70
pKd (HLA-B*07:02; [4]): 5.05
pKd (HLA-B*08:01; [3]): ≤ 4.70
pKd (HLA-B*15:01; [4]): 6.00
pKd (HLA-B*27:05; [3]): ≤ 4.70
pKd (HLA-B*35:01; [4]): 6.50
pKd (HLA-B*40:01; [3]): ≤ 4.70
pKd (HLA-B*44:02; [3]): ≤ 4.70
pKd (HLA-B*58:01; [3]): ≤ 4.70

MAVGVVLAL
pKd (HLA-C*03:03): 7.62

YLAKLFLDH
pKd (HLA-A*02:12; [5]): ≤ 4.70
pKd (HLA-A*02:19; [5]): ≤ 4.70
pKd (HLA-A*26:01; [5]): ≤ 4.70
pKd (HLA-A*68:02; [5]): ≤ 4.70
pKd (HLA-A*69:01; [5]): ≤ 4.70
pKd (HLA-B*18:01; [5]): ≤ 4.70
pKd (HLA-B*27:03; [5]): ≤ 4.70
pKd (HLA-B*39:01): ≤ 4.70
pKd (HLA-B*46:01; [5]): ≤ 4.70
pKd (HLA-B*51:01; [5]): ≤ 4.70
pKd (HLA-B*57:01; [5]): ≤ 4.70
